The target in test [1] is human melanocortin 4 receptor (human) (UniProt P32245). As to the kind of experiment: cell-based or functional assay.
For test [2] the target is unchanged. As to the kind of experiment: radioligand competition, [I125]-NDP-α-MSH, hMC4-R membranes, 1 µM compound.
In test [3] the target is human melanocortin 5 receptor (human) (UniProt P33032). The test is described as follows: radioligand competition, [I125]-NDP-α-MSH, hMC5-R membranes.
Test [4] deals with MC1-R of B-16 mouse melanoma cells (mouse) (UniProt Q01727). The test is described as follows: radioligand competition, [I125]-NDP-α-MSH, B-16 membranes, 1 µM compound.
MC1-R of B-16 mouse melanoma cells (mouse), sequence (Q01727 whole entry): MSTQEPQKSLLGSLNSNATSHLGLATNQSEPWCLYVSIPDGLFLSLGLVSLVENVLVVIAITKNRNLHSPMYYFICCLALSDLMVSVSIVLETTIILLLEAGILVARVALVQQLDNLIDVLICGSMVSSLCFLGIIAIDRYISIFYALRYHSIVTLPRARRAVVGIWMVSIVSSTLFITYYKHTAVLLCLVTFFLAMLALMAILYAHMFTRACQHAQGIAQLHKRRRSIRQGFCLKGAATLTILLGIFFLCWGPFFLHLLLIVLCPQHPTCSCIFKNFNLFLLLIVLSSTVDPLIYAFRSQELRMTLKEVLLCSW
The target in test [5] is human melanocortin 5 receptor (human) (UniProt P33032). The test is described as follows: radioligand competition, [I125]-NDP-α-MSH, hMC5-R membranes, 1 µM compound.
Test [6] concerns the target human melanocortin 3 receptor (human) (UniProt P41968). The test is described as follows: radioligand competition, [I125]-NDP-α-MSH, hMC3-R membranes, 1 µM compound.
Test [7] has as its target MC1-R of B-16 mouse melanoma cells (mouse) (UniProt Q01727). The test is described as follows: radioligand competition, [I125]-NDP-α-MSH, B-16 membranes.
Test [8] addresses human melanocortin 3 receptor (human) (UniProt P41968). As to the kind of experiment: radioligand competition, [I125]-NDP-α-MSH, hMC3-R membranes.
Test [9] deals with human melanocortin 4 receptor (human) (UniProt P32245). The test is described as follows: radioligand competition, [I125]-NDP-α-MSH, hMC4-R membranes.

human melanocortin 5 receptor (human), sequence (P33032 whole entry): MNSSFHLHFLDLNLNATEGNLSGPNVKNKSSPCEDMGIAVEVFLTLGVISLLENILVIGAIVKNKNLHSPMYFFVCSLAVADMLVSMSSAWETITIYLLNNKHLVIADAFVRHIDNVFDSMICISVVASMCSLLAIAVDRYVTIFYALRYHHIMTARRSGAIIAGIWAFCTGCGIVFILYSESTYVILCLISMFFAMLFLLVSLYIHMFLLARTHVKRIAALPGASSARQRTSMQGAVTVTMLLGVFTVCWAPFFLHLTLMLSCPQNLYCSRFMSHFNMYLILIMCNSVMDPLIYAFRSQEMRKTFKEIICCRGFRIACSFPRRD
human melanocortin 3 receptor (human), sequence (P41968 whole entry): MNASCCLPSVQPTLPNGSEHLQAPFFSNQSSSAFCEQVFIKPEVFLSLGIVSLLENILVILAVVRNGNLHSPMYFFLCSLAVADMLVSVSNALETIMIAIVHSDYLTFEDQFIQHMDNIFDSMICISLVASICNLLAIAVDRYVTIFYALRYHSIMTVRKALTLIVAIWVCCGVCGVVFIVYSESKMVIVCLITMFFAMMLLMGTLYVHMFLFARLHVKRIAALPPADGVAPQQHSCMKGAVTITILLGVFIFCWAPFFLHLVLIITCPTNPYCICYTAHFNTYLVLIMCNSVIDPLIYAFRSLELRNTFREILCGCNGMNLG
human melanocortin 4 receptor (human), sequence (P32245 whole entry): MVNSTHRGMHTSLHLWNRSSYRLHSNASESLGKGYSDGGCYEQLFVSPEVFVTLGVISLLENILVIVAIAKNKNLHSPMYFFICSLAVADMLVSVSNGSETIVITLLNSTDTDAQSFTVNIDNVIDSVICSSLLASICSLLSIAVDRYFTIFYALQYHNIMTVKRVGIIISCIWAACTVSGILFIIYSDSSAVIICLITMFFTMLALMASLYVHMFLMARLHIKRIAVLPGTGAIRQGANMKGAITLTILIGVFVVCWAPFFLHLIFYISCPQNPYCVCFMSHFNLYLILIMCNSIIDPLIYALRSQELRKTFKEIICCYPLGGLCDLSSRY

Take PT-141 (peptide): in [1], the EC50 (nM) (cAMP), 0.1 ng/mL Doxycycline was determined as 3 nM; the EC50 (nM) (cAMP), 10 ng/mL Doxycycline was found to be 0.9 nM; the Efficacy/Intrinsic Activity (cAMP), 0.1 ng/mL Doxycycline stood at 0.9; the Efficacy/Intrinsic Activity (cAMP), 10 ng/mL Doxycycline was 1.
For “2-naphthylacetyl-1-amino-1-cyclohexane-carbonyl-D-Phe(4-Cl)-Arg-Trp-NH2 (peptide)”, the Inhibition at 1 µM (NDP-α-MSH) in test [2] was found to be 92%; in [4] it was 25%; in test [5], 63%; in test [6], 35%. Further, the Ki was found to be 0.3 µM in test [3], 0.897 µM in test [7], 0.453 µM in test [8] and 0.04 µM in test [9]. Further, in test [1], the EC50 (nM), normal system (cAMP) was > 1000 nM. Further, the intrinsic activity, normal system (cAMP) in [1] is 0.2.
For “7'-amino-heptanoyl-Ser(Bzl)-D-Phe(4-Cl)-Arg-S-(-)-1-(1-naphthyl)ethylamide (peptide)”, the Inhibition at 1 µM (NDP-α-MSH) in [2] was 98%; in test [4] it was 46%; in test [5] it was 64%; in test [6], 85%. The Ki came to 0.313 µM in test [3], 0.338 µM in test [7], 0.125 µM in test [8] and 0.007 µM in test [9]. This substance also registered an EC50 (nM) (cAMP), High Receptor Density System in test [1] of 180 nM. The substance further showed an EC50 (nM), normal system (cAMP) in test [1] of 17 nM. Further, the Efficacy/Intrinsic Activity (cAMP), High Receptor Density System in [1] was 0.63. This substance also yielded an intrinsic activity, normal system (cAMP) in test [1] of 0.3.

The record behind these values is patent US20090081197A1, “Methods for Selection of Melanocortin Receptor-Specific Agents for Treatment of Obesity” (Palatin Technologies, Inc., priority 2007, published 2009).
